Laboratory results taken from the supplement of paper PMC9233669.
Variants at the floor of the assay were thinned out.

Columns and labels:
biotinyl-Val-oxazolone = assay: self-aminoacylation, catalytic enhancement (BVO) (fold over background); higher = more active; k-Seq, kA / k0A0; sequences stand for … in GGGAAUGGAUCCACAUCUACGAAUUC…UUCACUGCAGACUUGACGAAGCUG
How it was run: (§1)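 Working in 50 μL HEPES/NaCl/KCl/MgCl2/CaCl2 buffer with 5% acetonitrile at pH 6.9–7.0, mutagenized RNA pools (0.43 μM; 21-nt variable region) were reacted with 2–1250 μM of each biotinyl-aminoacyl-oxazolone for 90 minutes at room temperature. Streptavidin capture followed, with quantification by triplicate qPCR and Illumina sequencing. Catalytic enhancement is reported as median kA over the uncatalyzed rate, the low-activity peak of a bimodal Gaussian fit to the data.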

biotinyl-Ile-oxazolone = assay: self-aminoacylation, catalytic enhancement (BIO) (fold over background); higher = more active; k-Seq, kA / k0A0; sequences stand for … in GGGAAUGGAUCCACAUCUACGAAUUC…UUCACUGCAGACUUGACGAAGCUG
How it was run: as §1

biotinyl-Trp-oxazolone = assay: self-aminoacylation, catalytic enhancement (BWO) (fold over background); higher = more active; k-Seq, kA / k0A0; sequences stand for … in GGGAAUGGAUCCACAUCUACGAAUUC…UUCACUGCAGACUUGACGAAGCUG
How it was run: as §1

biotinyl-Leu-oxazolone = assay: self-aminoacylation, catalytic enhancement (BLO) (fold over background); higher = more active; k-Seq, kA / k0A0; sequences stand for … in GGGAAUGGAUCCACAUCUACGAAUUC…UUCACUGCAGACUUGACGAAGCUG
How it was run: as §1

biotinyl-Met-oxazolone = assay: self-aminoacylation, catalytic enhancement (BMO) (fold over background); higher = more active; k-Seq, kA / k0A0; sequences stand for … in GGGAAUGGAUCCACAUCUACGAAUUC…UUCACUGCAGACUUGACGAAGCUG
How it was run: as §1

biotinyl-Phe-oxazolone = assay: self-aminoacylation, catalytic enhancement (BFO) (fold over background); higher = more active; k-Seq, kA / k0A0; sequences stand for … in GGGAAUGGAUCCACAUCUACGAAUUC…UUCACUGCAGACUUGACGAAGCUG
How it was run: as §1

Row | Sequence | self-aminoacylation (biotinyl-Val-oxazolone) | self-aminoacylation (biotinyl-Ile-oxazolone) | self-aminoacylation (biotinyl-Trp-oxazolone) | self-aminoacylation (biotinyl-Leu-oxazolone) | self-aminoacylation (biotinyl-Met-oxazolone) | self-aminoacylation (biotinyl-Phe-oxazolone)
1 | AAGUAUGCUCAUAGUCGCAAG [Fam3.1 aminoacylation ribozyme variant] | 1.3 | 1.83 | 2.78 | 1.3 | 1.5 | 4.07
2 | CUUCUACAAACAAUCGGUCUG [Fam1A.1 aminoacylation ribozyme variant] | 0.831 | 0.694 | 0.564 | 0.623 | 0.763 | 0.956
3 | AAGUUUUCUAAUAGUCGCAUG [Fam3.1 aminoacylation ribozyme variant] | 1.2 | 1.78 | 1.91 | 1.85 | 1.4 | 3.44
4 | AAGUUUGCUAAGAGUCGUAAG [Fam3.1 aminoacylation ribozyme variant] | 0.757 | 0.61 | 2.31 | 0.535 | 0.708 | 7.41
5 | AUAACCCUGGCCAUCGAGUGA [Fam2.1 aminoacylation ribozyme variant] | 2.09 | 3.35 | 3.57 | 2.71 | 4.48 | 11.4
6 | CUUACCCUGGUCUUCGAGUGA [Fam2.1 aminoacylation ribozyme variant] | 2.64 | 2.29 | 5 | 4.29 | 3.87 | 17.9
7 | AUUACCCUGGGCAUGGAGUGA [Fam2.1 aminoacylation ribozyme variant] | 3.13 | 3.35 | 8.01 | 8.39 | 7.29 | 40.7
8 | CUACUUCAAUCAAUCGGUCUA [Fam1A.1 aminoacylation ribozyme variant] | 0.914 | 0.972 | 7.18 | 1.02 | 0.871 | 13.7
9 | AUUUACCUAGGUUAUCGGGUG [Fam2.2 aminoacylation ribozyme variant] | 2.4 | 2.29 | 3.72 | 3.48 | 3.44 | 23.2
10 | AGUCACCUAGGUCAUGGGGUG [Fam2.2 aminoacylation ribozyme variant] | 4.11 | 3.57 | 5.76 | 5.97 | 5.58 | 29.2
11 | CUACAUUAAACAAUCGGUCUG [Fam1A.1 aminoacylation ribozyme variant] | 0.819 | 0.992 | 0.75 | 0.898 | 1.14 | 0.647
12 | CCACACUCCAAGCAAUCGGUG [Fam1B.1 aminoacylation ribozyme variant] | 4.45 | 4.43 | 6.72 | 9.97 | 7.47 | 59.9
13 | CCACGCGUCAAGCAAUCGGUC [Fam1B.1 aminoacylation ribozyme variant] | 1.2 | 0.827 | 0.802 | 0.71 | 0.841 | 0.748
14 | AAGUUUGCUAAUUGUCUCAAG [Fam3.1 aminoacylation ribozyme variant] | 0.881 | 0.937 | 0.743 | 0.852 | 0.943 | 1.05
15 | AUUACCCUGUUAAUCGAGUGA [Fam2.1 aminoacylation ribozyme variant] | 5.36 | 4.91 | 13.4 | 9.68 | 9.91 | 54.5
16 | CCACACUGCAAGCAAUCGGUA [Fam1B.1 aminoacylation ribozyme variant] | 2.25 | 2.19 | 2.33 | 2.11 | 2.16 | 0.894
17 | AUUCACCUAGGUCAUCAGGUG [Fam2.2 aminoacylation ribozyme variant] | 1.3 | 1.19 | 1.39 | 1.56 | 1.39 | 1.31
18 | AUUACCCUGAUCAUCGAGUGU [Fam2.1 aminoacylation ribozyme variant] | 2.24 | 1.81 | 5.04 | 3.28 | 4.23 | 5.33
19 | AAGUUUGCUAAUAGGCGCACG [Fam3.1 aminoacylation ribozyme variant] | 0.833 | 0.981 | 0.485 | 0.865 | 0.568 | 2.42
20 | AUUUGCCUGGUCAUCGAGUGA [Fam2.1 aminoacylation ribozyme variant] | 4.54 | 4.47 | 9.16 | 8.2 | 8 | 13.1
21 | CUACUUCAAACAAUAGGUCGG [Fam1A.1 aminoacylation ribozyme variant] | 0.693 | 0.792 | 0.676 | 0.754 | 0.643 | 0.7
22 | CCACACCUCAAGCGAUCGGUC [Fam1B.1 aminoacylation ribozyme variant] | 1.73 | 1.31 | 1.5 | 1.69 | 1.33 | 1.09
23 | AUUACCCUGGGCCUCGAGUGA [Fam2.1 aminoacylation ribozyme variant] | 2.61 | 2.41 | 4.65 | 3.74 | 3.15 | 22.6
24 | AUUCACCUAGGUCAUCGGGCA [Fam2.2 aminoacylation ribozyme variant] | 3.24 | 3.5 | 2.81 | 5.57 | 3.67 | 3.27
25 | CUAUUUCAAACAAUCGGUUUG [Fam1A.1 aminoacylation ribozyme variant] | 0.81 | 0.907 | 3.18 | 1 | 0.903 | 4.11
26 | AUGCACCUCGGUCAUCGGGUG [Fam2.2 aminoacylation ribozyme variant] | 3.86 | 4.1 | 6.81 | 6.47 | 5.38 | 32.6

Row | Sequence | self-aminoacylation (biotinyl-Val-oxazolone) | self-aminoacylation (biotinyl-Ile-oxazolone) | self-aminoacylation (biotinyl-Trp-oxazolone) | self-aminoacylation (biotinyl-Leu-oxazolone) | self-aminoacylation (biotinyl-Met-oxazolone) | self-aminoacylation (biotinyl-Phe-oxazolone)
27 | AUGACCCUGGUCAUCGCGUGA [Fam2.1 aminoacylation ribozyme variant] | 7.53 | 7.46 | 19.7 | 17.1 | 16 | 126
28 | AAUCACCUAGGUCAUCGGUUG [Fam2.2 aminoacylation ribozyme variant] | 1.29 | 1.44 | 1.69 | 1.66 | 1.74 | 5.05
29 | AUUACCCAGGUCAUCCAGUGA [Fam2.1 aminoacylation ribozyme variant] | 3.14 | 3.13 | 6.41 | 5.76 | 5.32 | 24.2
30 | CUACCUCAAACAAUCGCUCUG [Fam1A.1 aminoacylation ribozyme variant] | 1.17 | 0.818 | 1.83 | 1.27 | 0.85 | 0.589
31 | AUUCACCUAGAUCAUUGGGUG [Fam2.2 aminoacylation ribozyme variant] | 1.91 | 2.15 | 3.54 | 3.94 | 3.71 | 18
32 | CCACACUUAUAGCAAUCGGUC [Fam1B.1 aminoacylation ribozyme variant] | 0.927 | 1 | 0.886 | 0.722 | 0.667 | 0.926
33 | AUUACCCUGUUCACCGAGUGA [Fam2.1 aminoacylation ribozyme variant] | 5 | 4.79 | 12.7 | 11.6 | 11 | 77.2
34 | CCACACUUCCAGCAAUCGGAC [Fam1B.1 aminoacylation ribozyme variant] | 1.1 | 0.999 | 0.846 | 0.592 | 0.797 | 0.784
35 | AAGUUUCCUAACAGUCGCAAG [Fam3.1 aminoacylation ribozyme variant] | 1.03 | 1.23 | 0.58 | 0.963 | 0.884 | 1.26
36 | AGACACUUCAAGCAAUCGGUC [Fam1B.1 aminoacylation ribozyme variant] | 2.64 | 2.8 | 16 | 3.25 | 2.62 | 19
37 | AAGUUUGCGAAUAGUCCCAAG [Fam3.1 aminoacylation ribozyme variant] | 0.844 | 1.06 | 0.863 | 0.951 | 1.14 | 1.03
38 | AAAUUUGCUAAUAGUUGCAAG [Fam3.1 aminoacylation ribozyme variant] | 1.21 | 1.61 | 1.71 | 1.08 | 1.24 | 1.44
39 | CUACUUCAAACAAUUGGUCGG [Fam1A.1 aminoacylation ribozyme variant] | 1.11 | 1.25 | 0.932 | 1.18 | 0.91 | 0.858
40 | CCACUUCAAACAAUCGGUCUA [Fam1A.1 aminoacylation ribozyme variant] | 0.99 | 1.19 | 17.4 | 1.5 | 0.991 | 28.5
41 | CCACACCUCCAGCAAUCGGUC [Fam1B.1 aminoacylation ribozyme variant] | 1.4 | 1.69 | 1.19 | 1.15 | 1.27 | 1.64
42 | AUUACCCUGGUCAUCUUGUGA [Fam2.1 aminoacylation ribozyme variant] | 2.33 | 2.27 | 4.57 | 4.41 | 4.75 | 22.6
43 | AAUUUUGCUAAUACUCGCAAG [Fam3.1 aminoacylation ribozyme variant] | 1.35 | 1.5 | 1.03 | 1.47 | 1.01 | 1.5
44 | ACUACCCUGGUCAUCCAGUGA [Fam2.1 aminoacylation ribozyme variant] | 3.27 | 3.37 | 5.86 | 5.01 | 5.05 | 21.2
45 | AUGCAUCUAGGUCAUCGGGUG [Fam2.2 aminoacylation ribozyme variant] | 5.41 | 5.83 | 9.62 | 9.38 | 8.33 | 57
46 | CUUCACCAAGGUCAUCGGGUG [Fam2.2 aminoacylation ribozyme variant] | 5.4 | 4.21 | 7.64 | 9.25 | 8.17 | 59.9
47 | ACACACUACAAGCAAUCGGUC [Fam1B.1 aminoacylation ribozyme variant] | 1.24 | 1.2 | 1.02 | 0.855 | 0.815 | 1.65
48 | CAACUUCAAACAGUCGGUCUG [Fam1A.1 aminoacylation ribozyme variant] | 1.19 | 1.21 | 0.928 | 1.08 | 1.2 | 5.76
49 | CCACACUUCGACCAAUCGGUC [Fam1B.1 aminoacylation ribozyme variant] | 1.85 | 1.31 | 1.41 | 1.22 | 1.74 | 1.42
50 | AUUAACCUGGUAAUCGAGUGA [Fam2.1 aminoacylation ribozyme variant] | 4.05 | 3.86 | 11.3 | 9.73 | 8.82 | 52.9
51 | AAGUUUGCAAAUAGUAGCAAG [Fam3.1 aminoacylation ribozyme variant] | 0.939 | 1.27 | 0.923 | 1.07 | 1.03 | 1.62
